From publication PMC4630614 come the findings set out here.

One may read the stoichiometry N as the number of molecules, sites or subunits per partner or assembly.

In the test the target is UbcA1, ubiquitin-conjugating enzyme E2 from Agrocybe aegerita (Agrocybe aegerita). The test can be described thus: AUC; velocity sedimentation, Beckman XL-I, 4 °C, 40 μM protein, 50 mM Tris pH 7.5, 150 mM NaCl, 60,000 rpm, c(S) of Sedfit; monomer to dimer.

As to “UbcA1, ubiquitin-conjugating enzyme E2 from Agrocybe aegerita”, the monomer : dimer ratio (monomer : dimer) was 32.6 and the stoichiometry N amounted to 2.
